{"source": "paper PMC8754659", "key": {"[1]": {"target": "NmeCas9 (Neisseria meningitides) (UniProt C9X1G5)", "sequence (C9X1G5 whole entry)": "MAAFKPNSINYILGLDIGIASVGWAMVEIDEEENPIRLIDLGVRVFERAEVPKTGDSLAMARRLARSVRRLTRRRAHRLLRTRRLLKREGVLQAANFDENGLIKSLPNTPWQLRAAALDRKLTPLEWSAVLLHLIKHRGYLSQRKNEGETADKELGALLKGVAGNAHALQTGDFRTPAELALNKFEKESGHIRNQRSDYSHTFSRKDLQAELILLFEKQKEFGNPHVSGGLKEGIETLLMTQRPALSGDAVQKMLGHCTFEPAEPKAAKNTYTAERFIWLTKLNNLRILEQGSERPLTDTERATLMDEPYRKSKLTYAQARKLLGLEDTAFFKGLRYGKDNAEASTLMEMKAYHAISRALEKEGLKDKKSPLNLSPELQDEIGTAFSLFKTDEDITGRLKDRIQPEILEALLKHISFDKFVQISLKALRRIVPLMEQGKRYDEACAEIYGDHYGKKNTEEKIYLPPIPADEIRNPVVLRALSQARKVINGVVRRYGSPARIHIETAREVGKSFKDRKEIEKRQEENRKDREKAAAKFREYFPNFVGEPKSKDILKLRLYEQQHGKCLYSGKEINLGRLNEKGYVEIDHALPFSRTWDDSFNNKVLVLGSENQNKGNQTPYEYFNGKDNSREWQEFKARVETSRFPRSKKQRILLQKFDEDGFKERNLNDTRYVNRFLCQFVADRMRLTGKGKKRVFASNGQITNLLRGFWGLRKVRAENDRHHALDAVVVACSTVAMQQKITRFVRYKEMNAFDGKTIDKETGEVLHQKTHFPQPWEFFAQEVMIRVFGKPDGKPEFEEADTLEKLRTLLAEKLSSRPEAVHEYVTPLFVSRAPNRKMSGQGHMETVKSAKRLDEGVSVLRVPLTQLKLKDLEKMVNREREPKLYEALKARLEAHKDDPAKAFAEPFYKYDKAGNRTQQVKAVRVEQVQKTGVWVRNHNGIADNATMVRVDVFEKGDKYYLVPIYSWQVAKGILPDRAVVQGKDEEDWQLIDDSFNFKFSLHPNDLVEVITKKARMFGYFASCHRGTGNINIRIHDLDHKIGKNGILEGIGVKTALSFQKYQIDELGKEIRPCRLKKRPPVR", "experiment": "ITC"}, "[2]": {"target": "BH-REC1 fragment of NmeCas9 (Neisseria meningitides)", "experiment": "ITC"}}}
{"substance": "AcrIIA17 (natural protein)", "values": [{"measurement": "Kd", "setting": "[1]", "result": 5, "unit": "nM"}, {"measurement": "stoichiometry N", "setting": "[1]", "result": 1}, {"measurement": "fold reduction of the binding affinity in high salt against 300 mM salt", "setting": "[2]", "result": 10, "unit": "fold"}]}
{"substance": "AcrIIA17 D81A/E84A mutant (natural protein)", "values": [{"measurement": "fold reduction in binding affinity against wild-type AcrIIA17", "setting": "[2]", "result": 20, "unit": "fold"}]}
